From patent US20060024313A1, “Agents that disrupt dimer formation in DPP-IV family of prolyl dipeptidases” (priority 2004, published 2006)
Where “and” joins values, the source holds several entries; their conditions need not be identical. Equal values may be shown once. Marks after values point to notes of the source that are not given here. Peptide text beside a SMILES is read from it.

What was measured:
DPP-IV [1] = test: Kinetic constant measurements with chromogenic substrate H-Gly-Pro-pNA; type: biochemical, human; conditions: for Km / kcat: substrate H-Gly-Pro-pNA
Procedure: To measure the kinetic parameters, the chromogenic substrate H-Gly-Pro-pNA was utilized to initiate the reaction, which was monitored at OD 405 nm as a function of time (21). […] The initial rate was measured with less than 10% substrate depletion for the first 10 to 300 seconds. The steady-state parameters, kcat and Km, were determined from initial velocity measurements at 0.5 to 5 Km of the substrate concentrations. Lineweaver-Burk plots were analyzed using non-linear regression of the Michaelis-Menten equation. Correlation coefficients better than 0.99 were obtained throughout.

[2] = Size exclusion chromatography (gel filtration, Superdex 200); type: physicochemical; conditions: gel filtration experiments; PBS buffer
Procedure: Chemical crosslinking in intact cells was conducted as described (24). Size exclusion chromatography was conducted at 4° C. Purified proteins (0.5 ml at a concentration of 5 uM) were applied to a Superdex 200 10/30 column (10×300-310 mm) pre-equilibrated with PBS. The sample was eluted with the same buffer at 0.3 ml/min and 0.25 ml fractions were collected. The Superdex 200 10/30 column was calibrated with the Stokes Radii of ferritin (6.1 nm), catalase (5.22 nm), aldolase (4.81 nm), albumin (3.55 nm), ovalbumin (3.05 nm) and chymotrypsinogen A (2.09 nm) from Amersham-Pharmacia.

[3] = Analytical ultracentrifugation (AUC): sedimentation velocity and equilibrium; type: physicochemical; conditions: for quaternary structure (monomer/dimer) by AUC: PBS buffer where stated; for Stokes' radius (Rs): sedimentation velocity experiments
Procedure: Buffer was changed using an Amicon device and DPP-IV proteins were allowed to equilibrate for at least four hours or longer as indicated in the text at 25° C. after buffer changes. The sedimentation coefficients (S) of the enzyme were estimated by a Beckman-Coulter XL-A analytical ultracentrifuge with an An60Ti rotor as described (25). Sedimentation velocity analysis was performed at 40,000 rpm at 25° C. with standard double sector aluminum centerpieces. The UV absorption of the cells was scanned every 5 min for 4 hours. Sedimentation equilibrium was performed at 20° C. with six-channel open centerpieces and then centrifuged at 12,000 rpm for 12 hours. The data from both sedimentation velocity and sedimentation experiments were analyzed with the SedFit version 8.7 program to obtain molecular weights and sedimentation coefficients (25). Sednterp version 1.07 program is used to obtain solvent density, viscosity, Stokes' radius (Rs) and anhydrous frictional ratio (f/fo).

DPP-IV [4] = test: Dilution experiment (specific activity after two-fold dilutions); type: biochemical, human; conditions: 200 nM to 1.6 nM enzyme, 16 hours at 25° C., 10 uM H-Gly-Pro-pNA
Procedure: Enzyme concentrations ranging from 200 nM to 1.6 nM were used in the dilution experiments. The experiments were carried out with consecutive two-fold dilutions in PBS containing 0.1% BSA and 1 mM DTT (dithiothreitol). The solution after dilution was incubated at 25° C. for 16 hours to ensure attainment of dimer-monomer equilibrium. The reaction was initiated by adding the substrate H-Gly-Pro-pNA at a final concentration of 10 uM for both wild type DPP-IV and H750A proteins. The initial rate of the reaction was recorded and converted to specific activity.

H750A monomers = H750A monomers (Homo sapiens, UniProt P27487, H750A); test: AUC of H750A in the presence of inhibitor or dipeptide product; conditions: PBS buffer, FIG. 14
Sequence of H750A monomers (P27487 39-766 H750A): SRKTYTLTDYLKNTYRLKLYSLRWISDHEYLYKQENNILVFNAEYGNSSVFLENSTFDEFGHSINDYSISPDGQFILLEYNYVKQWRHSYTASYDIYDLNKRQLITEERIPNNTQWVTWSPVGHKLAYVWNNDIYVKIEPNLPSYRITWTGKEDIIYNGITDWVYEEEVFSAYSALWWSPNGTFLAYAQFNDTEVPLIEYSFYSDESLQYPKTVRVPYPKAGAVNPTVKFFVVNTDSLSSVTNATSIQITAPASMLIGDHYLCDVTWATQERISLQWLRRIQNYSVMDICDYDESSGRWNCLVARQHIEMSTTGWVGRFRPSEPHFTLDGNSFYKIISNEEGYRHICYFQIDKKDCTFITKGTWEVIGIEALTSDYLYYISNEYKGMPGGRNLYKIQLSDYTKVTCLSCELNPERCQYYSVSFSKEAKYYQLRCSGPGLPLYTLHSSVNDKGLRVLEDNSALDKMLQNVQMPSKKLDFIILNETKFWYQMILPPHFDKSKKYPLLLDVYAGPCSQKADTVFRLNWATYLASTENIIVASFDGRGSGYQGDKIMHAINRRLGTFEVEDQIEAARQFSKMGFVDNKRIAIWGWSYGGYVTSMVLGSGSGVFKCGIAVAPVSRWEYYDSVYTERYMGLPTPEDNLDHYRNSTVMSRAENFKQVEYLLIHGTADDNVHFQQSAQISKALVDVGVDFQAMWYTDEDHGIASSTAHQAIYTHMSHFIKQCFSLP
Procedure: AUC was performed for H750A in the presence of the proline-mimetic inhibitor and Gly-Pro dipeptide product, since the substrate Gly-Pro-pNA is cleaved by the enzyme.

Row | Compound | Km (DPP-IV [1]; PBS buffer) | kcat (DPP-IV [1]; PBS buffer) | Stokes' radius (Rs) [2] | Anhydrous frictional ratio (f/fo) ([3]; PBS buffer) | Sedimentation coefficient (s20, w) ([3]; PBS buffer) | quaternary structure (monomer/dimer) by AUC [3] | Stokes' radius (Rs) ([3]; PBS buffer) | specific activity on dilution (DPP-IV [4]) | dimer formation of H750A monomers in the presence of the substance (H750A monomers) | Km (DPP-IV [1]; High salt buffer) | kcat (DPP-IV [1]; High salt buffer) | AUC analysis or catalytic activities in low salt buffer (DPP-IV [1]; low salt buffer compared to PBS buffer (data not shown)) | Sedimentation coefficient (s20, w) ([3]; High salt buffer) | quaternary structure (subunit composition) by sedimentation velocity ([3]; High salt buffer (0.5 M sodium sulfate)) | Stokes' radius (Rs) ([3]; High salt buffer)
1 | sDPP-IV: endogenous DPP-IV purified from human semen | 96 µM | 73 s⁻¹ | 5.9 nm and 5.9^a nm | 1.4 | 9.1 S | homodimeric | 5.8^b nm | no decrease in specific activity |  |  |  |  |  |  | 
2 | NCC(=O)N1CCC[C@H]1C(=O)O [G-P-OH, Gly-Pro] (H-Gly-Pro-OH) |  |  |  |  |  |  |  |  | did not associate to form dimers |  |  |  |  |  | 
3 | rDPP-IV: recombinant wild-type human DPP-IV (aa 39 to 766) from baculoviral infected insect cells | 90 µM | 87 s⁻¹ | 5.6 nm and 5.6^a nm | 1.4 | 8.4 S | non-spherical dimer | 5.0^b nm | no decrease in specific activity |  | 181 µM | 57 s⁻¹ | no differences | 5.0 S and 4.9 S | dimer | 4.9^b nm
